This test concerns the target human recombinant FGF-2 (human, UniProt P09038 143-288).

Where no end group is shown, it is not given here. The star is where a group is joined. Biotin = O=C1N[C@H]2[C@H](CS[C@H]2CCCCC(=O)*)N1

Broadly, the koff is the rate constant with which the complex falls apart.

Chain of human recombinant FGF-2 (P09038 143-288): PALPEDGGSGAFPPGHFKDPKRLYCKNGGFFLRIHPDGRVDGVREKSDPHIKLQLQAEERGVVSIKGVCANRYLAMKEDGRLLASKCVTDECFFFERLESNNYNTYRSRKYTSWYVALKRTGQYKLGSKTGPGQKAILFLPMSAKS

For the molecule Biotin-KKKQKNGKKHQKKKVLKVRKSQRSRQKKTT [biotinylated CXCL9(74-103)], the koff worked out at 0.00207 s⁻¹.

The values are drawn from publication PMC8534003 (2021).
